Test results from publication PMC10368727, “Sequestration of histidine kinases by non-cognate response regulators establishes a threshold level of stimulation for bacterial two-component signaling” (Nature Communications, 2023).
Where two headings read alike, the source gives them in different places.

T1: phosphorylated, histidine tag labeled HK KdpD (cytosolic catalytic domain) (M. tuberculosis, UniProt P9WGL3 532-860)
T1 construct: also called KdpD~P
T1 sequence: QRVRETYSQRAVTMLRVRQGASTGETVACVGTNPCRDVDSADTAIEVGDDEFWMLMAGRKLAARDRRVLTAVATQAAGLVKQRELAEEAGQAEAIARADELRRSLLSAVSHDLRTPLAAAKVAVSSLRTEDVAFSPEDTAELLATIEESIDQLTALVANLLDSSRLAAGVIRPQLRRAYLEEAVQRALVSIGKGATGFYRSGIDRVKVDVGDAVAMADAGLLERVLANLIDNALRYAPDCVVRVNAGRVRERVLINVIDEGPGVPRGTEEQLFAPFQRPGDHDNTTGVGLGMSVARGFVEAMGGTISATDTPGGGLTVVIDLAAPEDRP

T2: phosphorylated, histidine tag labeled HK PrrB (cytosolic catalytic domain) (M. tuberculosis, UniProt P9WGK7 172-446)
T2 construct: also called PrrB~P
T2 sequence: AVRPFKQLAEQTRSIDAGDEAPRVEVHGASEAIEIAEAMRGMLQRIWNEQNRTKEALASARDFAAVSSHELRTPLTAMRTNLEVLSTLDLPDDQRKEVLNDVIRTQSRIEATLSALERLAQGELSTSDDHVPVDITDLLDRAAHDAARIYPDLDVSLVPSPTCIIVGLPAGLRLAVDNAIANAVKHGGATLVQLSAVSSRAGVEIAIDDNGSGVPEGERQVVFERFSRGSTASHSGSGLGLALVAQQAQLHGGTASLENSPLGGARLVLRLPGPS

B1: response regulator NarL (natural protein)
chain: MSNPQPEKVRVVVGDDHPLFREGVVRALSLSGSVNVVGEADDGAAALELIKAHLPDVALLDYRMPGMDGAQVAAAVRSYELPTRVLLISAHDEPAIVYQALQQGAAGFLLKDSTRTEIVKAVLDCAKGRDVVAPSLVGGLAGEIRQRAAPVAPVLSAREREVLNRIACGQSIPAIAAELYVAPSTVKTHVQRLYEKLGVSDRAAAVAEAMRQRLLD
notes: also called non-cognate RR NarL
B2: phosphorylated, histidine tag labeled HK DevS (cytosolic catalytic domain) (domain or fragment)
chain: LATSQRRMRELDVLTDRDRIARDLHDHVIQRLFAIGLALQGAVPHERNPEVQQRLSDVVDDLQDVIQEIRTTIYDLHGASQGITRLRQRIDAAVAQFADSGLRTSVQFVGPLSVVDSALADQAEAVVREAVSNAVRHAKASTLTVRVKVDDDLCIEVTDNGRGLPDEFTGSGLTNLRQRAEQAGGEFTLASVPGASGTVLRWSAPLSQ
notes: also called DevS~P
B3: response regulator PrrA (natural protein)
chain: MDTGVTSPRVLVVDDDSDVLASLERGLRLSGFEVATAVDGAEALRSATENRPDAIVLDINMPVLDGVSVVTALRAMDNDVPVCVLSARSSVDDRVAGLEAGADDYLVKPFVLAELVARVKALLRRRGSTATSSSETITVGPLEVDIPGRRARVNGVDVDLTKREFDLLAVLAEHKTAVLSRAQLLELVWGYDFAADTNVVDVFIGYLRRKLEAGGGPRLLHTVRGVGFVLRMQ
B4: response regulator MprA (natural protein)
chain: MSVRILVVDDDRAVRESLRRSLSFNGYSVELAHDGVEALDMIASDRPDALVLDVMMPRLDGLEVCRQLRGTGDDLPILVLTARDSVSERVAGLDAGADDYLPKPFALEELLARMRALLRRTKPEDAAESMAMRFSDLTLDPVTREVNRGQRRISLTRTEFALLEMLIANPRRVLTRSRILEEVWGFDFPTSGNALEVYVGYLRRKTEADGEPRLIHTVRGVGYVLRETPP
B5: response regulator TcrX (natural protein)
chain: MRRADGQPVTVLVVDDEPVLAEMVSMALRYEGWNITTAGDGSSAIAAARRQRPDVVVLDVMLPDMSGLDVLHKLRSENPGLPVLLLTAKDAVEDRIAGLTAGGDDYVTKPFSIEEVVLRLRALLRRTGVTTVDSGAQLVVGDLVLDEDSHEVMRAGEPVSLTSTEFELLRFMMHNSKRVLSKAQILDRVWSYDFGGRSNIVELYISYLRKKIDNGREPMIHTLRGAGYVLKPAR
B6: response regulator TcrA (natural protein)
chain: MADETTMRAGRGPGRACGRVSGVRILVVEDEPKMTALLARALTEEGHTVDTVADGRHAVAAVDGGDYDAVVLDVMLPGIDGFEVCARLRRQRVWTPVLMLTARGAVTDRIAGLDGGADDYLTKPFNLDELFARLRALSRRGPIPRPPTLEAGDLRLDPSEHRVWRADTEIRLSHKEFTLLEALIRRPGIVHTRAQLLERCWDAAYEARSNIVDVYIRYLRDKIDRPFGVTSLETIRGAGYRLRKDGGRHALPR
B7: GFP-tagged MtrB, unphosphorylated (cytosolic catalytic domain) (domain or fragment)
chain: SRQVVVPVRSASRIAERFAEGHLSERMPVRGEDDMARLAVSFNDMAESLSRQIAQLEEFGNLQRRFTSDVSHELRTPLTTVRMAADLIYDHSADLDPTLRRSTELMVSELDRFETLLNDLLEISRHDAGVAELSVEAVDLRTTVNNALGNVGHLAEEAGIELLVDLPAEQVIAEVDARRVERILRNLIANAIDHAEHKPVRIRMAADEDTVAVTVRDYGVGLRPGEEKLVFSRFWRSDPSRVRRSGGTGLGLAISVEDARLHQGRLEAWGEPGEGACFRLTLPMVRGHKVTTSPLPMKPIPQPVLQPVAQPNPQPMPPEYKERQRPREHAEWSG
notes: also called MtrB-GFP
B8: phosphorylated, GFP-tagged HK MtrB (cytosolic catalytic domain) (domain or fragment)
chain: B7 chain
notes: also called MtrB~P; P~MtrB-GFP
B9: response regulator MtrA (natural protein)
chain: MDTMRQRILVVDDDASLAEMLTIVLRGEGFDTAVIGDGTQALTAVRELRPDLVLLDLMLPGMNGIDVCRVLRADSGVPIVMLTAKTDTVDVVLGLESGADDYIMKPFKPKELVARVRARLRRNDDEPAEMLSIADVEIDVPAHKVTRNGEQISLTPLEFDLLVALARKPRQVFTRDVLLEQVWGYRHPADTRLVNVHVQRLRAKVEKDPENPTVVLTVRGVGYKAGPP
notes: also called cognate RR MtrA
B10: response regulator KdpE (natural protein)
chain: MTLVLVIDDEPQILRALRINLTVRGYQVITASTGAGALRAAAEHPPDVVILDLGLPDMSGIDVLGGLRGWLTAPVIVLSARTDSSDKVQALDAGADDYVTKPFGMDEFLARLRAAVRRNTAAAELEQPVIETDSFTVDLAGKKVIKDGAEVHLTPTEWGMLEMLARNRGKLVGRGELLKEVWGPAYATETHYLRVYLAQLRRKLEDDPSHPKHLLTESGMGYRFEA
B11: phosphorylated, GFP-tagged HK PhoR (cytosolic catalytic domain) (domain or fragment)
chain: RRSLRPLAEFEQTAAAIGAGQLDRRVPQWHPRTEVGRLSLALNGMLAQIQRAVASAESSAEKARDSEDRMRQFITDASHELRTPLTTIRGFAELYRQGAARDVGMLLSRIESEASRMGLLVDDLLLLARLDAHRPLELCRVDLLALASDAAHDARAMDPKRRITLEVLDGPGTPEVLGDESRLRQVLRNLVANAIQHTPESADVTVRVGTEGDDAILEVADDGPGMSQEDALRVFERFYRADSSRARASGGTGLGLSIVDSLVAAHGGAVTVTTALGEGCCFRVSLPRVSDVDQLSLTPVVPGPP
notes: also called PhoR-GFP; PhoR~P

Legend:
Conditions in all cases: both partners purified
[1] = biological target: B7; test: MST; GFP-tagged MtrB in the unphosphorylated state titrated with RR
[2] = biological target: B8; test: MST
[3] = biological target: T1, phosphorylated, histidine tag labeled …; test: MST
response regulator NarL = biological target: B1; test: MST
response regulator DevR = response regulator DevR (M. tuberculosis, UniProt P9WMF9 1-217); test: MST
[4] = biological target: T2, phosphorylated, histidine tag labeled …; test: MST
[5] = biological target: B11
response regulator PhoP [6] = biological target: T3, response regulator PhoP (M. tuberculosis, UniProt P71814 1-247); test: MST; GFP-tagged MtrB in the unphosphorylated state titrated with RR
response regulator PhoP [7] = biological target: T3, response regulator PhoP

response regulator DevR, sequence (P9WMF9 whole entry): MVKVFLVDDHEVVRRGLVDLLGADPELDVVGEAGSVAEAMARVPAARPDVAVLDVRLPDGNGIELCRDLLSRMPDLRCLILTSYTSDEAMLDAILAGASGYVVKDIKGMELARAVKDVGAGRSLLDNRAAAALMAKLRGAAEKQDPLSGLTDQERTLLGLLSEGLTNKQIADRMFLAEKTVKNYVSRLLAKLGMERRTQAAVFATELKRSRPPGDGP

B1
Kd [1]: 402 ± 58 nM
Kd [2]: 83 ± 15 nM
Kd [3]: 355 nM

B2
Kd (response regulator NarL): 325 nM
Kd (response regulator DevR): 13200 nM

B3
Kd [4]: 4310 nM

B4
Kd [4]: 1960 nM

B5
Kd [1]: 21700 ± 5020 nM
Kd [2]: 82 ± 12 nM
Kd [5]: 484 nM

B6
Kd [2]: 3070 ± 74 nM
Kd [5]: 1830 nM

B7
Kd (response regulator PhoP [6]): 18100 ± 2740 nM

B8
Kd (response regulator PhoP [7]): 3580 ± 121 nM

B9
Kd [1]: 936 ± 113 nM
Kd [2]: 444 ± 117 nM

B10
Kd [2]: 868 ± 100 nM
Kd [3]: 4490 nM

B11
Kd (response regulator PhoP [7]): 1480 nM
